Data on 79 sequences can be found in the supplement of paper PMC10126150.

± gives the standard deviation of the averaged measurements.
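Further: ATP exposure 15 min at 22 °C before imaging.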

In the data set the test system is ATP. Briefly: switch fluorescence ratio, 500 uM ATP over buffer (Cy3 cluster intensity, sum of 5 cycles each) (fold (ratio)); higher = stronger signal-on switching upon ATP binding; sequences stand for … in TCGTCGGCAGCGTCAGATGTGTATAAGAGACAGTTTTTTTTTTTTTTTTTTTTTTTTT…TC. To be noted: aptamer strand: ATP DNA aptamer (quencher-CACCTGGGGGAGTATTGCGGAGGAAGG + anchor), 100 nM annealed; ATP concentration: 500 uM. Summed up: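 Switching-strand clusters labelled with Cy3 on a modified Illumina MiSeq flow-cell were annealed to 100 nM quencher-labelled ATP aptamer, imaged in selection buffer, and re-imaged after 15 min with 500 uM ATP at 22 °C. This was done over five cycles with NaOH stripping and re-annealing in between. The fluorescence ratio is summed target-cycle over summed buffer-cycle Cy3 intensity per cluster, averaged per switch-domain sequence, excluding clusters outside 100-1000 RFU.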
For the sequence TTTACCTTGC, the switch fluorescence ratio amounted to 2.03 ± 0.19.
To TGCGCAATTT belongs 1.205 ± 0.0054; to TCTATAATGT, 0.965 ± 0.025.
As for GACGTGAAGG, the switch fluorescence ratio is 1.026 ± 0.0055.
Regarding GCGTTTAATA, the switch fluorescence ratio is 0.997 ± 0.014.
To CCTGGGTCTA belongs 1.03 ± 0.023; to GCACTGGGGC, 1.01 ± 0.023; to CAGTTCGGGG, 0.9729 ± 0.0094.
Regarding GGGCTTAAGG, the switch fluorescence ratio was 0.97 ± 0.015.
For GTGAGGGTCG, the switch fluorescence ratio stood at 1.01 ± 0.011.
Consider GCTGCTGTAT, for which the switch fluorescence ratio was 1.01 ± 0.022.
To GCGGCTTAAC belongs 1.02 ± 0.022.
As to AAAGATCGTG, the switch fluorescence ratio turned out to be 0.974 ± 0.01.
To CGGGCAAGGG belongs 1.19 ± 0.029; to TGGCTGGGCT, 1.03 ± 0.05.
With TTCAGCAGAG the figure was 1.41 ± 0.59; with TTAAGTGGGG, 1.02 ± 0.011.
For the sequence TTAATATTGT, the switch fluorescence ratio turned out to be 1.029 ± 0.0062.
For the sequence GATTTGATGA, the switch fluorescence ratio came to 0.9959 ± 0.002.
With TTTGTAGCAC the figure was 1.31 ± 0.072; with CCTGGTTTTT, 1.12 ± 0.15.
With ACAGAGGGAT the figure was 1.02 ± 0.018; with CCTCATGACA, 1.263 ± 0.0096; with TGGGTGGACA, 1.02 ± 0.08.
Consider TATTAGGGGC, for which the switch fluorescence ratio turned out to be 1.04 ± 0.036.
As for GGGGATGGGA, the switch fluorescence ratio amounted to 1.01 ± 0.033.
Take AATGTGGTCG: the switch fluorescence ratio stood at 0.983 ± 0.085.
For the sequence AAGAGGGGAC, the switch fluorescence ratio amounted to 0.996 ± 0.056.
With GGACTAGGTT, the switch fluorescence ratio is 1.006 ± 0.0033.
Regarding GTAAACGGGT, the switch fluorescence ratio amounted to 0.963 ± 0.016.
On to TGACGGGTTA, for which the switch fluorescence ratio was 1.02 ± 0.022.
With GATTTCCCGC the figure was 1.26 ± 0.043; with AAATCTGTAA, 1.03 ± 0.06; with GGATTTGCCA, 0.989 ± 0.038.
As to CGACGTTGGT, the switch fluorescence ratio amounted to 1.08 ± 0.043.
To CCTGGGTTAT belongs 1.02 ± 0.011; to ATTTTTTGAC, 0.9915 ± 0.0011.
To ACGGGTTGGG belongs 1.02 ± 0.017.
With TACAAATCTA the figure was 1 ± 0.036; with TTGGCGGGAC, 0.9819 ± 0.0036.
As to ACCATGGGCT, the switch fluorescence ratio came out at 0.974 ± 0.038.
Turning to GGTGCAGACG, the switch fluorescence ratio came to 1.03 ± 0.018.
With AAAATGATAG, the switch fluorescence ratio amounted to 1.06 ± 0.072.
To GGTAATAAGG belongs 1.05 ± 0.028.
With AAGAGGATAG the figure was 0.983 ± 0.043; with CAAGTTGAAA, 0.9693 ± 0.0034.
Regarding GGTACTACGG, the switch fluorescence ratio came out at 1.05 ± 0.017.
With GGTAGTGGCT the figure was 0.993 ± 0.01; with AAAAGTGGGT, 0.9942 ± 0.0081; with AAGGTTAGTT, 1.003 ± 0.0083.
To GGGCGTAAGG belongs 1.01 ± 0.047; to GCCCGCAGAA, 1.76 ± 0.024.
Turning to ATTTCGGGAG, the switch fluorescence ratio turned out to be 1.01 ± 0.052.
For GGGATAGAGA, the switch fluorescence ratio is 1.02 ± 0.03.
With AGCAGAAATG the figure was 0.9979 ± 0.0074; with TGGTGGGTTT, 1 ± 0.029; with GGGGCGAGTG, 1 ± 0.035.
For TTAGCTGGCA, the switch fluorescence ratio was 1 ± 0.027.
To GAATATGTAG belongs 0.965 ± 0.044; to CACATGTAGC, 1.02 ± 0.041; to GCTTTCTCGG, 1.08 ± 0.048.
On to TGCGCCTCAG, for which the switch fluorescence ratio was 1.08 ± 0.074.
Turning to GAAGATGGGG, the switch fluorescence ratio is 1.01 ± 0.024.
On to ATTGTAATTT, for which the switch fluorescence ratio came to 1.01 ± 0.026.
Turning to CGGAACGAGA, the switch fluorescence ratio was determined as 0.983 ± 0.025.
With AAAACGAATT the figure was 1.01 ± 0.044; with AAGGAAGGGT, 1.02 ± 0.041; with TTTTCGCTAA, 1.55 ± 0.96.
To GCACAATTAG belongs 1.04 ± 0.0071; to TCCAAAGAGA, 0.97 ± 0.039; to GTTGTTCAAA, 0.989 ± 0.015.
To GTCATAGCGT belongs 0.977 ± 0.016.
As to GGGGTAATTT, the switch fluorescence ratio was determined as 1.02 ± 0.035.
With TGTCGGAAAG the figure was 0.985 ± 0.026; with GCAAGTAGTT, 1.03 ± 0.053; with TTGCTCGCTC, 1.16 ± 0.084.
To CGGGATCATT belongs 0.958 ± 0.017; to GGTAGTATCC, 1.02 ± 0.025.
In the case of AAAGGTGCAC, the switch fluorescence ratio was 0.968 ± 0.11.
